The record followed here is PMC9025429.

This assay has as its target N36 peptide (HIV-1). Briefly: ELISA; competition ELISA of 6-HB formation: plate coated with the 6-HB-specific mAb NC-1; inhibitor at 0.312-20 uM with N36 (final 1 uM) and biotin-C34 (final 2 uM) in PBS, 37 °C, 1 h; streptavidin-HRP detection.

pIC50: −log10 of the molar value.

Chain of N36 peptide (HIV-1) (P03375 546-581 limits assumed): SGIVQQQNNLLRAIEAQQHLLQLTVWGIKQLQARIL

Take C10-T1144 (peptide): the pIC50 was 5.62.
